Experimental findings from patent US20030073629A1 (published 2003) are described below.

To fix the notation:
B1: endogenous mature Omi from HEK293 cell extracts (38 kDa band) (enzyme)
chain: AVPSPPPASPRSQYNFIADVVEKTAPAVVYIEILDRHPFLGREVPISNGSGFVVAADGLIVTNAHVVADRRRVRVRLLSGDTYEAVVTAVDPVADIATLRIQTKEPLPTLPLGRSADVRQGEFVVAMGSPFALQNTITSGIVSSAQRPARDLGLPQTNVEYIQTDAAIDFGNSGGPLVNLDGEVIGVNTMKVTAGISFAIPSDRLREFLHRGEKKNSSSGISGSQRRYIGVMMLTLSPSILAELQLREPSFPDVQHGVLIHKVILGSPAHRAGLRPGDVILAIGEQMVQNAEDVYEAVRTQSQLAVQIRRGRETLTLYVTPEVTE
notes: also called HtrA2

In test [1] the target is T1, XIAP (human, UniProt P98170 1-497).
T1 construct: also called ^35S-labeled in vitro translated XIAP; ^35S-XIAP
T1 sequence (P98170 whole entry): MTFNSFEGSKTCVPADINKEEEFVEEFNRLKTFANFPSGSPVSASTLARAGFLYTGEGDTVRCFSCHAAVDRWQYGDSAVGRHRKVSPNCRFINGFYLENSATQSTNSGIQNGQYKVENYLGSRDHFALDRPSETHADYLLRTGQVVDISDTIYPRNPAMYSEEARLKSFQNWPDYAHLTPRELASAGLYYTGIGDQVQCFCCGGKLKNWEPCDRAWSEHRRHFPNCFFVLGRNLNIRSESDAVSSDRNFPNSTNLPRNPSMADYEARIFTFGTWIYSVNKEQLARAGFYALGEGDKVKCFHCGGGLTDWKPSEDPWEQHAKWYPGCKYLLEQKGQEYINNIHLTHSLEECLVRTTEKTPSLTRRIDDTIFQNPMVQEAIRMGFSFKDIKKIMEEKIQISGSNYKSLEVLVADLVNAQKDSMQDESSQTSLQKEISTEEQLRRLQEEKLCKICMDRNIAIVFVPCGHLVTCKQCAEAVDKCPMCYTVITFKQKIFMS
The experiment in a line: far-western blot with ^35S-labeled in vitro translated XIAP. An excerpt: As mentioned above, the mechanism of IAP inhibition of caspases is conserved in mammals and insects. Accordingly, it is thought that other mammalian IAP-binding proteins are still undiscovered. To identify such proteins, a GST-BIR3 fusion protein was used as an affinity reagent to purify new IAP binding proteins from extracts of human HEK293 cells and mouse heart, kidney, liver and spleen tissues. […] Cells were homogenized and centrifuged once at 20,000×g and the supernatant was then subjected to centrifugation at 100,000×g. The resultant supernatant was pre-cleared with Glutathion-Sepharose beads and then incubated with GST-BIR3 bound to Glutathion-Sepharose beads for 12 hours at 4° C. The mixture was centrifuged at 500 rpm for three minutes and the GST-BIR3 bead pellet was washed three times in the lysis buffer. After binding the extracts to the GST-BIR3 protein, the bound proteins were eluted with 200 μM of the Smac IAP-binding motif peptide AVPIA (SEQ ID NO:2) at 37° C. for one hour and analyzed by far-western blotting with ³⁵S-labeled in vitro translated XIAP. Specifically, the affinity-purified proteins were subjected to SDS-PAGE electrophoresis and then transferred to a nitrocellulose membrane using standard western blotting technique. […]

Test [2] has as its target T2, Omi-S/A with the AVPS motif mutated to SSAS, from GFP-IETD-SSA (human, UniProt O43464 137-458).
T2 construct: expressed as GFP-IETD fusion
T2 sequence: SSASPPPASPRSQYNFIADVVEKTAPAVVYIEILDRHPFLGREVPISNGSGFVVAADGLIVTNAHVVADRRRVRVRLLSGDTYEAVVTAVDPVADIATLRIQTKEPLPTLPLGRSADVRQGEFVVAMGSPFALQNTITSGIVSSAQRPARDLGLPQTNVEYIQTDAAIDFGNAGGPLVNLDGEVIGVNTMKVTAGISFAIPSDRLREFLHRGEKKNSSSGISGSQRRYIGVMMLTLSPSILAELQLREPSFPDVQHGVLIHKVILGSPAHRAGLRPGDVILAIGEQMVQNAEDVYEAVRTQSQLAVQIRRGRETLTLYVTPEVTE
The experiment in a line: GST-BIR3 precipitation of transfected 293T cell extracts, Flag immunoblot. (A western blot detects proteins with antibodies after separation by electrophoresis.)

Test [3] addresses T3, M-Omi-S/A-GFP (inactive S306A Omi-GFP fusion protein without the MTS, initiator methionine retained) (human, UniProt O43464 134-458).
T3 construct: not shown: C-terminal GFP tag
T3 sequence: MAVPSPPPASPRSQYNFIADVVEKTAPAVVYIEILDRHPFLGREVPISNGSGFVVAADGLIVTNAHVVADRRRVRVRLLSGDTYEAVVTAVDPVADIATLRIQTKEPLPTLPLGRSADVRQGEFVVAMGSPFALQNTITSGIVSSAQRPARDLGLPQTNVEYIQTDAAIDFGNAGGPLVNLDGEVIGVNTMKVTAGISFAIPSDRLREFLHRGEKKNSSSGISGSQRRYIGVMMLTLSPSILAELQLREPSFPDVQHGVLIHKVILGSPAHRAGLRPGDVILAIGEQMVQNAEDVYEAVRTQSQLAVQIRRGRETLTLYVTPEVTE
The experiment in a line: GST-BIR3 precipitation of transfected cell extracts, immunoblot.

The target of test [4] is T4, M-Omi-GFP (active Omi-GFP fusion protein without the MTS, initiator methionine retained) (human, UniProt O43464 134-458).
T4 construct: also called Omi134-458-GFP; not shown: C-terminal GFP tag
T4 sequence: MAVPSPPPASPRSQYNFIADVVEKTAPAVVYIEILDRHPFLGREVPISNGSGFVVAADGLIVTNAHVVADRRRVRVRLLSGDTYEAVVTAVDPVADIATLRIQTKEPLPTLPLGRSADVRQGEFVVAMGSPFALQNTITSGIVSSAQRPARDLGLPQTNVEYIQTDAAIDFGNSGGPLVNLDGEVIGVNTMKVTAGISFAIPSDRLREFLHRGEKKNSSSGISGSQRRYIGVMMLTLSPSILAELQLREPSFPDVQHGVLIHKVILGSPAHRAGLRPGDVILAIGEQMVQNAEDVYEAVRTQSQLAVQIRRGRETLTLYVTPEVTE
Described as above.

Test [5] has as its target T5, Omi-deltaAVPS (C-terminal His6-tagged recombinant mature Omi with the AVPS motif deleted) (human, UniProt O43464 138-458).
T5 construct: also called Omi-ΔAVPS
T5 sequence: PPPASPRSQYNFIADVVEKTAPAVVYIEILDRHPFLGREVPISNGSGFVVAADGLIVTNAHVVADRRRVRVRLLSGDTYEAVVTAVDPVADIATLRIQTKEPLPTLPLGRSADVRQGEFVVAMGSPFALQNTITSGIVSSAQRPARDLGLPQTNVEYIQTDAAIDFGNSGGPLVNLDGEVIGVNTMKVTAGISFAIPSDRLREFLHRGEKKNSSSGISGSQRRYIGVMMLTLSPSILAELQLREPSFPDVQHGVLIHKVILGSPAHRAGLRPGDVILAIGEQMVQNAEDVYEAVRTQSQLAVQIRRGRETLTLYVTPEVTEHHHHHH
The experiment in a line: GST pull-down with purified recombinant proteins, Coomassie gel. An excerpt:
To determine whether a recombinant Omi lacking the first 133 residues (mature Omi) can interact with the GST-BIR3 fusion protein, this protein was expressed with a C-terminal His6 tag in bacteria and purified to apparent homogeneity (see FIG. 7B). […] FIGS. 7A and 7B show scanned images of Coomassie stained gels representing SDS-PAGE analysis of purified C-terminal His6-tagged recombinant wild type mature Omi (WT), Omi-ΔAVPS, Omi-S306A, and mature Smac (FIG. 7A) and recombinant Omi and Smac proteins with GST-BIR1, 2, GST-BIR3 or GST-BIR3-E314S fusion proteins (FIG. 7B). Both recombinant mature Omi and Smac were able to interact equally with the wild type GST-BIR3 protein but not with the GST-BIR3-E314S mutant ([…]). Mature Omi and Smac were also able to interact with the GST-BIR1, 2 fusion protein. […] However, deletion of the AVPS motif of mature Omi completely abolished its interaction with the GST-BIR3 fusion protein.

Test [6] deals with B1. The experiment in a line: immunodepletion of 293 extracts with Smac monoclonal antibody, then GST-BIR3 pull-down. The procedure:
The undepleted and depleted extracts were incubated with the GST-BIR3 protein and the bound proteins were eluted as above. The eluates were then analyzed by far-western blotting with ³⁵S-XIAP and by western blotting with the Smac antibody as described above (see FIG. 4, left and right panels, respectively). […] The asterisk in FIG. 4 indicates non-specific bands and the arrow indicates the IgG band.

The target of test [7] is T1, XIAP. The experiment in a line: co-immunoprecipitation with Flag antibody from 293T cells, XIAP immunoblot.

B1: the binding result in test [1] is “binds”.

B2: GST-BIR3 fusion protein (BIR3 domain of human XIAP fused to GST) (other, UniProt P98170 238-358, looked up)
chain: RSESDAVSSDRNFPNSTNLPRNPSMADYEARIFTFGTWIYSVNKEQLARAGFYALGEGDKVKCFHCGGGLTDWKPSEDPWEQHAKWYPGCKYLLEQKGQEYINNIHLTHSLEECLVRTTEK
notes: domain: BIR3; also called wild type GST-BIR3; XIAP-BIR3; not shown: glutathione-S-transferase (GST) fusion partner
Turning to B2, the binding result in test [2], in test [3], in test [4] and in test [5] was “no binding” in each case.

B3: endogenous mature Smac/Diablo from HEK293 cell extracts (23 kDa band) (other, human, UniProt Q9NR28 56-239, looked up)
chain: AVPIAQKSEPHSLSSEALMRRAVSLVTDSTSTFLSQTTYALIEAITEYTKAVYTLTSLYRQYTSLLGKMNSEEEDEVWQVIIGARAEMTSKHQEYLKLETTWMTAVGLSEMAAEAAYQTGADQASITARNHIQLVKLQVEEVHQLSRKAETKLAEAQIEELRQKTQEEGEERAESEQEAYLRED
notes: mature
With B3, in test [6], the binding result is given as “no binding”.

B4: mature Omi with the AVPS motif mutated to AAAS, processed in 293T cells from a C-terminal Flag-tagged mutant precursor (enzyme)
chain: AAASPPPASPRSQYNFIADVVEKTAPAVVYIEILDRHPFLGREVPISNGSGFVVAADGLIVTNAHVVADRRRVRVRLLSGDTYEAVVTAVDPVADIATLRIQTKEPLPTLPLGRSADVRQGEFVVAMGSPFALQNTITSGIVSSAQRPARDLGLPQTNVEYIQTDAAIDFGNSGGPLVNLDGEVIGVNTMKVTAGISFAIPSDRLREFLHRGEKKNSSSGISGSQRRYIGVMMLTLSPSILAELQLREPSFPDVQHGVLIHKVILGSPAHRAGLRPGDVILAIGEQMVQNAEDVYEAVRTQSQLAVQIRRGRETLTLYVTPEVTE
notes: also called AAAS mutant; not shown: C-terminal Flag tag
In the case of B4, in test [7], the binding result is reported as “no binding”.
